Patent US20150023971A1 (H LUNDBECK A S, published 2015)

B1: Mature recombinant human BDNF (Promega #G1491) (ligand)
chain: HSDPARRGELSVCDSISEWVTAADKKTAVDMSGGTVTVLEKVPVSKGQLKQYFYETKCNPMGYTKEGCRGIDKRHWNSQCRTTQSYVRALTMDSKKRIGWRFIRIDTSCVCTLTIKRGR
notes: Bought protein; also called mature BDNF
B2: recombinant human p75 neurotrophin receptor/Fc chimera (R&D systems) (Fc fusion, UniProt P08138 29-250, looked up)
chain: KEACPTGLYTHSGECCKACNLGEGVAQPCGANQTVCEPCLDSVTFSDVVSATEPCKPCTECVGLQSMSAPCVEADDAVCRCAYGYYQDETTGRCEACRVCEAGSGLVFSCQDKQNTVCEECPDGTYSDEANHVDPCLPCTVCEDTERQLRECTRWADAECEEIPGRWITRSTPPEGSDSTAPSTQEPEAPPEQDLIASTVAGVVTTVMGSSQPVVTRGTTDN
notes: Bought from R&D systems; also called p75-IgG-Fc chimeric protein; p75^NTR; not shown: IgG Fc part of the bought chimera
B3: Mature murine NGF (Austral Biologicals) (ligand, mouse, UniProt P01139 122-241, looked up)
chain: SSTHPVFHMGEFSVCDSVSVWVGDKTTATDIKGKEVTVLAEVNINNSVFRQYFFETKCRASNPVESGCRGIDSKHWNSYCTTTHTFVKALTTDEKQAAWRFIRIDTACVCVLSRKATRRG
notes: mature; Bought protein

Experiments:
[1] = biological target: T1, purified human Sortilin extracellular domain (produced in stably transfected CHO cells) (human, UniProt Q99523 78-755); assay: SPR (Biacore), immobilised Sortilin extracellular domain; other preparations of mature BDNF
T1 construct: also called immobilized Sortilin
T1 sequence: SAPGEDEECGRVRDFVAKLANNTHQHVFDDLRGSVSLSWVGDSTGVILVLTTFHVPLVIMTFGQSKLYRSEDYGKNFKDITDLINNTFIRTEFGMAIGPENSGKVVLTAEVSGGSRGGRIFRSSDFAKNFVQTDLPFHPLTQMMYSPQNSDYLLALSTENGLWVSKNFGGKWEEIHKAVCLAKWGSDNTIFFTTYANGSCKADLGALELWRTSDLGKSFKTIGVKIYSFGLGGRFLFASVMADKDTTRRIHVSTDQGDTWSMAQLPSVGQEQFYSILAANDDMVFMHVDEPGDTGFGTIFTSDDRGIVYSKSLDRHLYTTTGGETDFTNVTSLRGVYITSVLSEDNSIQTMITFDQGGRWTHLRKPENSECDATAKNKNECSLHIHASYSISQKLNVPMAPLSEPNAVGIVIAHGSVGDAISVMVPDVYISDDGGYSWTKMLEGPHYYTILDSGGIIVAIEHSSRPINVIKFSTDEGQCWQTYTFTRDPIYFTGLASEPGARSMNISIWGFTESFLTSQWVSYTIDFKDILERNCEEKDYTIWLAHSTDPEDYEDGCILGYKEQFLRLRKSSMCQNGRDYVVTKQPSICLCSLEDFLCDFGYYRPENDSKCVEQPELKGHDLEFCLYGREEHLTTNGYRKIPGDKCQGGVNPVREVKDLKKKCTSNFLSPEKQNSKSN

[2] = biological target: T1, purified human Sortilin extracellular …; assay: SPR (Biacore), immobilised Sortilin extracellular domain (94 fmol/mm2); mature BDNF from Promega (#G1491), lower panel of FIG. 7
[3] = biological target: T2, Human recombinant proNGF (produced and purified in E. coli) (human, UniProt P01138 19-241); assay: SPR (Biacore), 25-500 nM proNGF over immobilised p75-IgG-Fc
T2 construct: Made as in Rattenholl et al 2001
T2 sequence (P01138 other isoform, or with tags, fused parts or gaps limits assumed): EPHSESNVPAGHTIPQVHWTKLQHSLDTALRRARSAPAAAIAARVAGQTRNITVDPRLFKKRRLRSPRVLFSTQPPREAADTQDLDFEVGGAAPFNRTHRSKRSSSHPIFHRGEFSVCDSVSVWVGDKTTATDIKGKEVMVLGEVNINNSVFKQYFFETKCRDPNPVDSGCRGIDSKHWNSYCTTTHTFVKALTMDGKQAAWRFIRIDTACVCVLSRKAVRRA

[4] = biological target: B2; assay: SPR (Biacore), 50-500 nM NGF over immobilised p75-IgG-Fc
[5] = biological target: T3, recombinant human TrkA/Fc chimera (R&D systems) (human, UniProt P04629-2 33-407); assay: SPR (Biacore), 50-500 nM NGF over immobilised TrkA-IgG-Fc
T3 construct: Bought from R&D systems; also called TrkA-IgG-Fc; not shown: IgG Fc part of the bought chimera
T3 sequence (P04629 other isoform, or with tags, fused parts or gaps mutant): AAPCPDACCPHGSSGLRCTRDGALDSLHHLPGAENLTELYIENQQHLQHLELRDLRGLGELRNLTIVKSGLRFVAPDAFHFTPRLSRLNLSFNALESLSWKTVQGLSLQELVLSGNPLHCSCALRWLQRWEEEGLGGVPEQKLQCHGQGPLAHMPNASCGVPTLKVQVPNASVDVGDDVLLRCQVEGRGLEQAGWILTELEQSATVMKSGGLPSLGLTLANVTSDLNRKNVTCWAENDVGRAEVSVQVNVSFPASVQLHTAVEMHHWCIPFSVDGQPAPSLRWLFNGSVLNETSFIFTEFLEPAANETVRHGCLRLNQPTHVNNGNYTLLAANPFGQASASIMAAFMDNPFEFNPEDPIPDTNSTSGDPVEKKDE

[6] = biological target: T1, purified human Sortilin extracellular …; assay: SPR (Biacore), 50-500 nM NGF over immobilised Sortilin extracellular domain
[7] = biological target: T1, purified human Sortilin extracellular …; assay: SPR (Biacore), NGF at 200 and 500 nM over immobilised Sortilin extracellular domain; the text gives ~8 nM for this pair

## B1
[1]
  Kd: 10 nM
[2]
  Kd: ~40 nM

## B2
[3]
  Kd: ~12 nM

## B3
[4]
  Kd: ~1 nM
[5]
  Kd: ~2 nM
[6]
  Kd: ~8 nM
[7]
  Kd: ~87 nM
